Test results published in patent publication US20240124593A1.

Target: human FcRn (human) (UniProt P55899)
Experiment: SPR Biacore 3000, antibody immobilised on CM5, hFcRn analyte, pH 7.5, 25 C, 1:1 fit

Chain of human FcRn (human) (P55899 24-297 limits assumed, chain 1 of 2): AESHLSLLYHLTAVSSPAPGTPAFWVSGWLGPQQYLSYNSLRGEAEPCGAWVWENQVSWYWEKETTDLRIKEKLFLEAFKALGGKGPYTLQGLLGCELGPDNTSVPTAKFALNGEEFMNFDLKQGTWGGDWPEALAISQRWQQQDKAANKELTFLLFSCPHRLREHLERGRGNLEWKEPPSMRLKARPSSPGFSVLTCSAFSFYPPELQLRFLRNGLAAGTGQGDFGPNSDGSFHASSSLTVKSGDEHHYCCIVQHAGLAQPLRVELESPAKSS
Chain of human FcRn (human) (b2m, as listed by the source limits assumed, chain 2 of 2): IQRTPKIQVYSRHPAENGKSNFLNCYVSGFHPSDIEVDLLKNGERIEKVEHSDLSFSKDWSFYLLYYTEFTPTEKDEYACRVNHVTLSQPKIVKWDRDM

Substance: DX-2504 (antibody)
- Kd: 1.9 nM
